Laboratory results: the supplement of paper PMC9170038

Tested on: MS2 coat protein
Assay: apparent KD of MS2 coat protein; designed switch direction (-1 OFF switch, 1 ON switch): -1; higher = weaker reporter binding
How it was run: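 Designed RNA switches with common flanks were transcribed on Illumina chips by stalled E. coli RNA polymerase and titrated with SNAP-549-labelled MS2 coat protein, from 0.7 or 1.5 nM doubling to 3 µM, in Tris-HCl pH 7.5 buffer with KCl, MgCl2, BSA, DTT, tRNA and Tween-20. Steps lasted 0.8–1.5 h (lowest) to 10–20 min (highest). Titrations ran without input, with 200 uM small-molecule ligand, or with an oligonucleotide input. Normalised cluster fluorescence was curve-fitted, and apparent KD is the per-design median over clusters.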

[1] = Eterna round: R95, input ligand: FMN 200 uM
[2] = Eterna round: R95, input ligand: microRNA oligo, concentration not stated
[3] = Eterna round: R95, input ligand: none
[4] = input ligand: microRNA oligo, concentration not stated

Sequence | apparent KD of MS2 coat protein (input ligand: FMN 200 uM) | apparent KD of MS2 coat protein (input ligand: none) | apparent KD of MS2 coat protein [1] | apparent KD of MS2 coat protein [2] | apparent KD of MS2 coat protein [3] | apparent KD of MS2 coat protein [4]
UCUCCUCCCGUAAGGAUAUUCAUGCGUACCACGCGGAAGAAGGUACAUGAGGAUCACCCAUGUAAUUAACACCG [BmEX4 B.9] (Eterna round: R97, puzzle: Brourd's mod of Exclusion 4) | 30.7 nM | 24.3 nM |  |  |  | 
UAUUACAAGCGAGAUCCUAACAUGAGGAUCACCCAUGUGCUCGUCUCAUUUUGGACUAUCACGAAAGUGAUAGUCCU [Level Boss var2-02] (puzzle: Sensor v3, turn-off variant 1) |  |  | 19.9 nM | 237 nM | 17.2 nM | 
GACUGCUGAGGAUAUACAUGAGGAUCACCCAUGUGCUUCAGCUACGAAAGUAGCAUUGGUAGAAGGUAGUAGUC [LRO-Excl3-05] (puzzle: Exclusion 3) |  |  |  | 11.5 nM |  | 
AGUUGGGCAGGAUAUACAUGAGGAUCACCCAUGUGAGAAAUACUAGUGAGGUCGAUUAGUAGAAGGGCCUGACA [Mat - Exclusion 3 - Eli Mod - D30] (Eterna round: R97, puzzle: Exclusion 3) | 244 nM | 31.2 nM |  |  |  | 
AAGGGUGCCCUUAGAAAGACAUGAGGAUCACCCAUGUAGACUGAGGAUAUCCACUCCUAAGGACCGGAGAAGGCAGUGUAAUGC [Qubion] (Eterna round: R96, puzzle: Exclusion NG 3) | 16.9 nM | 18.2 nM |  |  |  | 13.8 nM
UUUAAUUUUUUUUUUUUACAAGCUUUUUGCUCGUCUUAUACAUGAGGAUCACCCAUGUGAGUGAGGGAUAAAUUAUC [JMF 41] (puzzle: Sensor v3, turn-off variant 2) |  |  | 19.4 nM | 23.9 nM | 16.7 nM | 
CUCGUGUAAGGAUAUGUACCGACACCGCUAAAGCGGCUCCGACAGAAGGUACAUGAGGAUCACCCAUGUACUGC [EX4 B.2] (Eterna round: R97, puzzle: Exclusion 4) | 25.9 nM | 20.3 nM |  |  |  | 
GAUAAACAUGAGGAUCACCCAUGUGAGGAUAUGCGUACGUUGUCCGUAGGCGACGUGCGCAGAAGGCGCAAGGU [Mat - Mod of JL D99] (puzzle: Exclusion 1) |  |  |  | 73 nM |  | 
AAGAAACAUGAGGAUCACCCAUGUGAGGAUAUGACUAAGAAAAGAAAAGAAAGAAGAAUCAGAAGGCACAAAGG [salish99-ex1_r3_053] (puzzle: Exclusion 1) |  |  | 29.7 nM | 43 nM | 49.3 nM | 
CGCAUGUGAGGAUAUUAGUAGUAGUCAGAAAAGACUAUUACUGAGAAGGUACAUGAGGAUCACCCAUGUAUCCG [Mat - Exclusion 4 - Eli Mod - D46] (Eterna round: R97, puzzle: Exclusion 4) | 25.7 nM | 13.9 nM |  |  |  | 
GCAGAAAGUGUAGGAUAUCUAAUAAAGCGGAAACGCAAGACAUGAGGAUCACCCAUGUGUCCGGAAGAGAAGGGCAAAAGCUGC [EXNG2 V2 c] (Eterna round: R96, puzzle: Exclusion NG 2) | 26.6 nM | 38.2 nM |  |  |  | 22.7 nM
GUAAUUAAUGUAGGAUAUGCAAGGCGAACCUAAGCAGAAGGACAUGAGGAUCACCCAUGUAUUGCGGUCUGCGUACAGAUCGCU [salish99_ExNG1_r4_008] (Eterna round: R96, puzzle: Exclusion NG 1) | 45.7 nM | 19.9 nM |  |  |  | 18.5 nM
CUCUUGUUAGGAUAUCAAACUGGCGGCGGAGCCGGCAGUAGUGAGAAGGGACAUGAGGAUCACCCAUGUAAGAA [Veeder] (puzzle: Exclusion 4) |  |  |  | 55.1 nM |  | 
GGGAAGAACCAACAAGUAUACAUGAGGAUCACCCAUGUUCCUAGUGGGUAUGUAAAGAUUAAGAGAGCUCGUCUUAU [AK-miRNA-r3-10] (Eterna round: R97, puzzle: Sensor, turn-off variant 1) | 66.9 nM | 75.3 nM |  |  |  | 
GAAAUCGAAGGAUAUCCGGGUGUCCACAUGAGGAUCACCCAUGUACUGGCCAAUAGCCAGGGAGAAGGUCGCCCAA [EX5 A.3] (Eterna round: R97, puzzle: Exclusion 5) | 131 nM | 104 nM |  |  |  | 
AGAGAAUAGUCAGGAUAUGUGAAUAGAUAGAGAACAGAAGGGACACAUGAGGAUCACCCAUGUGAAGUCUUGAGGCUGCGUGGA [Prohibition 21 - Jieux - Exclusion NG 1] (Eterna round: R96, puzzle: Exclusion NG 1) | 22.1 nM | 20.3 nM |  |  |  | 17.5 nM
UUUUAACAUGAGGAUCACCCAUGUGAGGAUAUCGAAAUUUAUAUUAAUAUUAUUUUUUCGAGAAGGCACAUUUU [JMF 49] (puzzle: Exclusion 1) |  |  |  | 148 nM |  | 
GGCUGCAAUGUAGGAUAUCUGCACGUGUAGUGCAGAGAAGGACAUGAGGAUCACCCAUGUAUAGUAGCUUCGGCUACAGCAGCC [ENG1-D3] (Eterna round: R96, puzzle: Exclusion NG 1) | 24.6 nM | 18.2 nM |  |  |  | 12.7 nM

Sequence | apparent KD of MS2 coat protein (input ligand: FMN 200 uM) | apparent KD of MS2 coat protein (input ligand: none) | apparent KD of MS2 coat protein [1] | apparent KD of MS2 coat protein [2] | apparent KD of MS2 coat protein [3] | apparent KD of MS2 coat protein [4]
AGCCGGUCGUGAGGAUAUUACAUGAGGAUCACCCAUGUCGACGGGCUACGGGCGGUCGGCUCGUGUGAGAAGGCGCGCCCGGAA [Tibibiza] (Eterna round: R96, puzzle: Exclusion NG 2) | 17.3 nM | 17.6 nM |  |  |  | 8.33 nM
CUUUUGUGAGGAUAUCAGUAGUAAAUAAAUAAAAUUACUAUUGAGAAGGCACAUGAGGAUCACCCAUGUUCCUC [salish99_ex3_r3_088] (puzzle: Exclusion 4) |  |  |  | 33.9 nM |  | 
GGCAAUAACGAGGAUAUCGUAUGGGAAACCAUACGAGAAGGUGUAACAUGAGGAUCACCCAUGUUCCUCAAGCC [Mat - Exclusion 6 - Eli Mod - D66] (puzzle: Exclusion 6) |  |  | 35.3 nM | 34.6 nM | 40 nM | 
GUCCUCAUGACAUGAGGAUCACCCAUGUAUUAUUUGGUAACUGAGGAUAUACUUUUAAUGUUUAUGUAGAAGGCAGAUACGGUU [JR_ExcNG3_Sub018] (Eterna round: R96, puzzle: Exclusion NG 3) | 197 nM | 62.3 nM |  |  |  | 53 nM
AAUGCCGUAGGAUAUAUAUGGCAGAUCGCACGUCCUGAAAGACAUGAGGAUCACCCAUGUAGAAGGGCGGAAAC [Ceisisan] (puzzle: Exclusion 2) |  |  |  | 14.1 nM |  | 
GUACUAGAAUAUCAGUCGCACAUGAGGAUCACCCAUGUCAUGGGUAGAUCAAUAAAUAAAGAUACUGCUCGUCUUAU [Cac sensor turnoff var1 sub2] (Eterna round: R97, puzzle: Sensor, turn-off variant 1) | 496 nM | 378 nM |  |  |  | 
AGUACUGACACGUUGGUGUUAGUACAAUAAGCUUGUGACACAUGAGGAUCACCCAUGUCCUCAUAAGCUCGUCUUAU [salish99_TOv2_r2_094] (puzzle: Sensor v3, turn-off variant 2) |  |  | 22 nM | 1080 nM | 20.7 nM | 
CUAAAUCAUGUAGGAUAUGCGUGGCGAAGCUAUGCAGAAGGACAUGAGGAUCACCCAUGUCUUUCCGUCUGCGUACAGACGGGA [JL ENG1 1.20] (Eterna round: R96, puzzle: Exclusion NG 1) | 151 nM | 21.2 nM |  |  |  | 14.5 nM
AAAUGAAAGGCAGGAUAUCGUACUGAUCUUUGUCGAGAAGGGCCAGGGUCCCUCGGCUACAUGAGGAUCACCCAUGUUAAAAGA [Onabele] (Eterna round: R96, puzzle: Exclusion NG 1) | 56.9 nM | 36.2 nM |  |  |  | 29.4 nM
GCUGCGCGAGGAUAUGCGGUUUGUGCUUUGGGCCCUGGCGUACAUGAGGAUCACCCAUGUAGAAGGCGUGUGGG [Apr-15 SS2-51] (puzzle: Exclusion 2) |  |  |  | 32.8 nM |  | 
ACACGGCGAGGAUAUACAUGAGGAUCACCCAUGUGUCGGCCGGUACGGUAGCACUAGUGUAGAAGGCGCAUUGG [EX3 #38] (Eterna round: R97, puzzle: Exclusion 3) | 28.1 nM | 31.1 nM |  |  |  | 
GUGGUACAUGAGGAUCACCCAUGUUAGGAUAUCGCGUGAGGUUUUGCUUCCGCGCGCGCGAGAAGGGACGUCUU (puzzle: Exclusion 1) |  |  |  | 23.2 nM |  | 
UUCGAGGCAGGAUAUGCGUAGCCACGGAGGAUCACCAAGUAACAUGAGGAUCACCCAUGUAGAAGGGCUAGAGC [Eternabot (L1) Solution 26] (Eterna round: R97, puzzle: Exclusion 2) | 60.1 nM | 76.4 nM |  |  |  | 
CGCCGAGUGUUAGGAUAUUACAAGCAUAAGCGGUAAGAAGGAACAUGAGGAUCACCCAUGUACUGUCCCAUCGGGACAGGUUUC [Qule] (Eterna round: R96, puzzle: Exclusion NG 1) | 292 nM | 76.8 nM |  |  |  | 44.3 nM
UGAGCAUCAGGAUAUACAAGGCGACCGUGAGGUCGAAGGUUACAUGAGGAUCACCCAUGUAGAAGGGAUGUUCU [jl-ex2-4.11] (Eterna round: R97, puzzle: Exclusion 2) | 49.4 nM | 25.4 nM |  |  |  | 
GUCAUGUUAGGAUAUCUGGCAUGUGACUUCGGUCACUGUCCAGAGAAGGAACAUGAGGAUCACCCAUGUUGGAC [Ex4-3: 54] (puzzle: Exclusion 4) |  |  |  | 48.2 nM |  | 
UCCGGACAUGAGGAUCACCCAUGUCAGGAUAUACCCGAGGCAGCAAACACGCUAGCCAGUAGAAGGGACAUGGU [Geenma] (Eterna round: R97, puzzle: Exclusion 1) | 18.3 nM | 20.7 nM |  |  |  | 
